Reference: paper PMC8809517, “Cofactor-independent RNA editing by a synthetic S-type PPR protein”

T1: GFP-9S library array, motif 4 ND N98E;D124M (synthetic construct, N98E;D124M)
T1 chain: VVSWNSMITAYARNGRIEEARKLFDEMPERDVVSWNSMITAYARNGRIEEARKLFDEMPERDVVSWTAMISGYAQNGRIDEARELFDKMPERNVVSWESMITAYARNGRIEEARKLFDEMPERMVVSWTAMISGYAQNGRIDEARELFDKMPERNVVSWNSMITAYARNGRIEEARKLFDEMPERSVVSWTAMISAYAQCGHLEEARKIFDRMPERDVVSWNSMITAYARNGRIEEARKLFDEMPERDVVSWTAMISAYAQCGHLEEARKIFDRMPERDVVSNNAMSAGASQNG

T2: GFP-9S library array, motif 4 ND N98G;D124W (synthetic construct, N98G;D124W)
T2 chain: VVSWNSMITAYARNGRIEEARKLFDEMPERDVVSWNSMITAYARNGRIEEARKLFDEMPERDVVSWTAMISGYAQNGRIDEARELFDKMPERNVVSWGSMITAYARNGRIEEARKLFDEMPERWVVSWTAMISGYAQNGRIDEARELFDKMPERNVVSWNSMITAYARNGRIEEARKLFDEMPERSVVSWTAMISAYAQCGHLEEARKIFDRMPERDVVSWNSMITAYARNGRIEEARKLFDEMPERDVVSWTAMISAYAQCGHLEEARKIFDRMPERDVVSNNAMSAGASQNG

T3: GFP-9S library array, motif 4 ND N98R;D124N (synthetic construct, N98R;D124N)
T3 chain: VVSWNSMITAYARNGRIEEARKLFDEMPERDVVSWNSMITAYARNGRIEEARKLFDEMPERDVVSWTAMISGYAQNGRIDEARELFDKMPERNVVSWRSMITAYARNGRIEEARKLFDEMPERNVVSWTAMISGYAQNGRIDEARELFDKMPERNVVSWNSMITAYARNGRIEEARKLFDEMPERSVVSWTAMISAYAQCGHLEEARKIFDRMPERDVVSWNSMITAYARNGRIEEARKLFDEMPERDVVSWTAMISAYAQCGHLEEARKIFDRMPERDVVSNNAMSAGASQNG

T4: GFP-9S library array, motif 4 ND D124N (synthetic construct, D124N)
T4 chain: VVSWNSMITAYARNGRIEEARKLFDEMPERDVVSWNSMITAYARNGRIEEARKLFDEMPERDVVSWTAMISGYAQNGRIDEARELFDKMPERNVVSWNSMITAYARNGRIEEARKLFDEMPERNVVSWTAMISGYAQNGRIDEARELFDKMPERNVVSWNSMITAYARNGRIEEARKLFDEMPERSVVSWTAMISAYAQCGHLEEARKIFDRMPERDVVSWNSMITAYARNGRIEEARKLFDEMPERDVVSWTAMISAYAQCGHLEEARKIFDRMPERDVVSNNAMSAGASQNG

T5: GFP-9S library array, motif 4 ND N98D;D124T (synthetic construct, N98D;D124T)
T5 chain: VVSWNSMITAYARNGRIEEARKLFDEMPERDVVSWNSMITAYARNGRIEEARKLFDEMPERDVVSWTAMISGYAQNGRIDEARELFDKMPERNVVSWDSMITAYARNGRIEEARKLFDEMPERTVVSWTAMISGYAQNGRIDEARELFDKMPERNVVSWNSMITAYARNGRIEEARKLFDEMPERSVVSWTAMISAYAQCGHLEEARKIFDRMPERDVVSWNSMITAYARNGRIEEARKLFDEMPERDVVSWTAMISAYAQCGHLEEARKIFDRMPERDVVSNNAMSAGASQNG


Key:
Assay in all cases: high-throughput RNA pulldown from lysate on Ni-NTA beads; HRP: 50 mM Tris pH 8, 150 mM NaCl, 1 mM beta-mercaptoethanol, 50 ug/ml BSA, 3 ug/ml yeast RNA, 0.5% heparin; ITC and FP: Tris pH 8, 200 mM KCl, 5% glycerol; MST: 50 mM Tris pH 8, 200 mM NaCl, 1 mM DTT, BSA, heparin, 0.05% Tween 20
Settings in all cases: tags: N-terminal His-eGFP
[1] = biological target: T1, GFP-9S library array, motif 4 ND …
[2] = biological target: T2, GFP-9S library array, motif 4 ND …
[3] = biological target: T3, GFP-9S library array, motif 4 ND …
[4] = biological target: T4, GFP-9S library array, motif 4 ND D124N
[5] = biological target: T5, GFP-9S library array, motif 4 ND …

Binder | Kd ([1]; label: 5' Cy5) [nM] | Kd ([2]; label: 5' Cy5) [nM] | Kd ([3]; label: 5' Cy5) [nM] | Kd ([4]; label: 5' Cy5) [nM] | Kd ([5]; label: 5' Cy5) [nM] | Kd ([1]; label: 5' IRDye 800CW) [nM] | Kd ([2]; label: 5' IRDye 800CW) [nM] | Kd ([3]; label: 5' IRDye 800CW) [nM] | Kd ([4]; label: 5' IRDye 800CW) [nM] | Kd ([5]; label: 5' IRDye 800CW) [nM]
AUUACACGUGA (ssRNA) [Cy5-rpoA] | 105 | 49.7 | 98 | 3.13 | 123 |  |  |  |  | 
AUUAUACGUGA (ssRNA) [IR-rpoA-U] |  |  |  |  |  | 206 | 67 | 95.9 | 11.6 | 301
AUUAAACGUGA (ssRNA) [IR-rpoA-A] |  |  |  |  |  | 360 | 74.5 | 200 | 114 | 320
AUUAGACGUGA (ssRNA) [Cy5-rpoA-G] | 136 | 69.1 | 118 | 178 | 106 |  |  |  |  | 
